Article PMC7855779
Read-outs that look alike come from different tables or passages of the source. Values belong to the substance of their own block, whether it stands above or below them.

Legend:
MD2 (Homo sapiens) [1] = target: MD2 (Homo sapiens) (UniProt Q9Y6Y9); details: cited from earlier work
[2] = target: MD2-TLR4 complex (rat (endogenous in NRK-52E)) (UniProt Q9QX05)
[3] = target: MD2-TLR4 complex (rat (endogenous in NRK-52E)) (UniProt Q9QX05); remark: listed apart in the source
MD2 (Homo sapiens) [4] = target: MD2 (Homo sapiens) (UniProt Q9Y6Y9); details: cited from earlier work; remark: listed apart in the source

UniProt Q9Y6Y9, sequence (Q9Y6Y9 19-160): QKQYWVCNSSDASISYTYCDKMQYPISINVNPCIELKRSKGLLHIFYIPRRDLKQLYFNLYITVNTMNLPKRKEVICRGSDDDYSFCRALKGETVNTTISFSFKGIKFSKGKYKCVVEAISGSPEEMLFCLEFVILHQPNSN
UniProt Q9QX05, sequence (Q9QX05 whole entry, looked up, one chain of several): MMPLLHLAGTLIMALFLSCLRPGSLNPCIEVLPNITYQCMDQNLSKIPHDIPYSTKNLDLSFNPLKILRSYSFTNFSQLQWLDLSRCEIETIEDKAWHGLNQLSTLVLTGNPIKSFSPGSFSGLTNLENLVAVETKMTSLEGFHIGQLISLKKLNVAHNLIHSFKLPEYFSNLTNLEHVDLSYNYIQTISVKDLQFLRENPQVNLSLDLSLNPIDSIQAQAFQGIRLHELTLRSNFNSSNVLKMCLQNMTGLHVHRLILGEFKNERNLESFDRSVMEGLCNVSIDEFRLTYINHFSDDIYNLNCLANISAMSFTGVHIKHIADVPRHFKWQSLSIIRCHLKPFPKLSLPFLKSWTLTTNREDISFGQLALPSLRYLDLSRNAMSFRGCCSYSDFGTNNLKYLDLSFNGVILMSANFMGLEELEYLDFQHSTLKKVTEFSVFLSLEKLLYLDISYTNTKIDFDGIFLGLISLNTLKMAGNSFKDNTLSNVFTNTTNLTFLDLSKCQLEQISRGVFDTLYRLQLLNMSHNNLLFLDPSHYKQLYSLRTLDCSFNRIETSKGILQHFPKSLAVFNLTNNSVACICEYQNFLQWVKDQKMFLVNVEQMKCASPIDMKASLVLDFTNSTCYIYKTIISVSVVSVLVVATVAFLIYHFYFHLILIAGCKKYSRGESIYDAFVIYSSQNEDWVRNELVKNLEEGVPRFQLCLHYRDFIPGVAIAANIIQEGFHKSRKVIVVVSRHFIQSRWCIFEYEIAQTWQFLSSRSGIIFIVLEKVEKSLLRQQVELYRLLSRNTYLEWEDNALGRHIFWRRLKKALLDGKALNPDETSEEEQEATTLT

Substance: Angiotensin II (from UniProt P01019)
Kd (MD2 (Homo sapiens) [1]): 200 µM

IL-6 content of the media of NRK-52E cells (ELISA), Ang II 1 μM against control [2]: 61 pg/mL
IL-6 content of the media of NRK-52E cells (ELISA), Ang II 1 μM against control [3]: 15 pg/mL
Substance: Angiotensin II (peptide)

Substance: HMGB1 (from UniProt P09429)
Kd (MD2 (Homo sapiens) [4]): 0.6 µM
